Source: the DeepSol protein solubility set

Test: soluble on expression in E. coli; label from the status in PepcDB or PDB records

Row | Sequence | soluble on expression in E. coli
1 | MKAPLVSIIIPVWNLWELTCACLDSIRAHTPGNAVEVIVVDNGSDDTTATALAPTGEGLFGARFRRIRLETNRGFAVACNLGAAKAQGTYLLLLNNDTVLSPGWLPPLLREFDDEPRTGAAGPLLVYPDSGRVQHCGIAFAPTLQTEHLYANFPATHPAVRARRTLQAITGAAMLLPTALFRQCGGFHEGYKNGCEDLELCCRIREQGLRLAVVPESLVAHHESRTPGRKEHDAANATLLNRRCSGCFGPDLHRHALRDGFAIALTPWLDTYLTLPPGREAALTREHITDFDPGRCWETLQGEPLWHGGYEMLCSILDEAGRHAESAGVRLLQAGFFPTLPGFRQLARSAALSGNDELARQAAEKMQHIGGILEDPEPLVTRARGLVRWARRAGEPAVEALYTGWLTDIGLSADDLEHHHHHH | soluble
2 | MPMSSLPAAILSHMTAINNVPPPPLHSIPNLKKSKHINYGQLNALCHIRGQHSRSMSNILSAHDTFMKQYPKVFLHQKPRLPKLFKQEEQRELNEGKEESQHQQPDDSNNIAVHVQRAHGGHILYRPKRATEKFEEFLAILKKLPIHRTPYEHKTVWKFLKTIPDLTFQLNDKHLKTLSKTVFSETWLKGSTVVANDGFYVILKGLARPQTNVYKNLIEGSDSPDSFISQSFHSFIWSEEFKNSTLAEMYLPSYDSMLSKWSTFGTLEVMPQNESETQMFSVVTEDDCEILKIPAKGYAKIKEEKIKLENMQKLKLIRMCPYYEEWPTLSIYELIALLKWKKFPPGHVIVESGNIISFVGYINSGCCNIYRSIIGFVKLRSNKVKRSQKLVYMGKLKEKESFGEISVLLQVPFTCTIITKKEVEMAIIEDKDLFVA | soluble
3 | GSQRVLVEPDAGAGVAVMKFKNPPVNSLSLEFLTELVISLEKLENDKSFRGVILTSDRPGVFSAGLDLTEMCGRSPAHYAGYWKAVQELWLRLYQSNLVLVSAINGACPAGGCLVALTCDYRILADNPRYCIGLNETQLGIIAPFWLKDTLENTIGHRAAERALQLGLLFPPAEALQVGIVDQVVPEEQVQSTALSAIAQWMAIPDHARQLTKAMMRKATASRLVTQRDADVQNFVSFISKDSIQKSLQMYLERLKEEKG | soluble
4 | MKVLFVCSGGMSSAIVVNALKKEAEKKGVNMEVHAIGTSEVEEEVKNGWDVVMVAPQVRHRFDSVKKFAEEESIPCGIIPPQAYTPLGGPTLLKTVNDLIR | not soluble
5 | KNASVITVGNEILKGRTVNTNAAFIGNFLTYHGYQVRRGFVVMDDLDEIGWAFRVALEVSDLVVSSGGLGPTFDDMTVEGFAKCIGQDLRIDEDALAMIKKKYGQADLTPQRLKMAKIPPSCRPIENPVGTAPGLICAVGGKKVIILPGVPKEMEALLKAMEKDIIIPD | soluble
6 | MAHHHHHHMSFKEMRLAFEGSKNIYESSLLTFKGVDGYDVYNCSLLFQYKGKHHLFGRFERREKSSDSRVRLFVETGKDEYTVVPDQLTYQLEDPFVSKVQGSLFFGGTQVIKSGGNVTGYFCDFYHGMPQLLTYYTTGPDLMRSIRIVQLADGTIGIFSCHKTEGSCLIGFTTVNSLNEVTREVIAEAKPINNAPFLGAWGGVNQAYLLSSGNIGCICHHGYLDKDANGEQRNVCCITSFVYDPKRNNTHTFQLIGTRGCFPDCPSKSPSVADCAFASGIVMREDGKCDLYSGLGDTHEGRITIDYPFKGYGTVVNDLVF | soluble
7 | MKIMAICGSGLGSSFMVEMNIKKVLKKLNIDAEVEHSDLSSATPGAADLFVMAKDIAASASVPESQLVVINNIIDINELETQLRAWFAKQ | not soluble
8 | MRSTKVIHIVGCHAEGEVGDVIVGGVAPPPGETVWEQSRFIANDETLRNFVLNKPRGGVFRHVNLLVPPKDPRAQMGFIIMEPADTPPMSGSNSICVSTVLLDSGIIAMQEPVTHMVLEAPGGIIEVEAECRNGKAERISVRNVPSFADRLDAPLDVTGLGTIMVDTAYGGDSFVIVDAAQIGMKIEPGQARELAEIGVKITKAANEQLGFRHPERDWRHISFCQITEPVTREGDVLTGVNTVAIRPAKFDRSPTGTGCSARMAVLHAKGQMKAGERFIGKSVLGTEFHCRLDKVLELGGKPAISPIISGRAWVTGTSQLMLDPSDPFPHGYRLSDTWPRDELEHHHHHH | soluble
9 | MAHHHHHHMKGTLAGYTRGLHGQTKQTALVRVENVNTREDATWYVGKRVCYVYHGKKVKRCVRWSKAPARRSTTRALWGRVTRPHGNAGMMRVKFNGASVPASAIGRRIRVYLYPSQI | soluble
10 | MPMVRNPMFLRMLGGLALALMLSAGRVATADTGTEAARAVVDKLNGALIDVMRNAKQLGYQGRYKKLDPIVREVFQFEAVAQIALGAHWKTLNDDQKREFVKKLTELSIATYAAQFNSYAGEQFQYDSDQAVKPDRVVVRYKMVAPKETPVKFDYMVNQFDGKWEIINIVVDGISDLALKKAQYTSVIDREGFDVLMSKLTQKITDYANNENNSKSLEHHHHHH | soluble
11 | MGFDLDVEKKKENRNIPQANNLKIKVIGVGGAGNNAINRMIEIGIHGVEFVAVNTDLQVLEASNADVKIQIGENITRGLGAGGRPEIGEQAALESEEKIREVLQDTHMVFITAGFGGGTGTGASPVIAKIAKEMGILTVAIVTTPFYFEGPERLKKAIEGLKKLRKHVDTLIKISNNKLMEELPRDVKIKDAFLKADETLHQGVKGISELITKRGYIRLTSRFARIESVMKDAGAAILGIGVGKGEHRAREAAKKAMESKLIEHPVENASSIVFNITAPSNIRMEEVHEAAMIIRQNSSEDADVKFGLIFDDEVPDDEIRVIFIATRFPDEDKILFPEGDIPAIYRYGLEGLL | soluble
12 | SLKITDDCINCDVCEPECPNGAISQGEEIYVIDPNLCTECVGHYDEPQCQQVCPVDCIPLDDANVESKDQLMEKYRKITGKA | soluble
13 | MGSDKIHHHHHHMKKSCKVSVHQLQIGNFVRLPVAWKDHPFLFSSFHIKQAAQIELIKNLGIAHVIVDLERSDVEPLSIDAVNPIKLPPAPEIHDLKNDMELYKAEQIEVQKKLRRDIHKTEQNFTRSVAMMRSMISKLRNRPLNAVDDAKDLVHSIVEQLLTSDNLVLHLMSDAKQDESIYYHSLNVAILSMLIAKEMEWSRSEIEAIGLSALFHDVGKLKIPPQILKKSTPWSAPELNFIKQHPLLGVELLKLAENFPPSALPAITNHHEFLDGTGYPKGLKEADLDQMSQLLAVVNEYDSLCYPNPQDKPMMPYAALGHLYKQYKTKLNQEYIGKIIKMLGIYPPGSVVELSSGQYAMVMSVNLQKLLCPKILVYDAQVPKDQAPIVDLELEGISIVRCLPPAALPEKVHEYLNPRERVSYYFGGDSRK | not soluble
14 | MGSDKIHHHHHHMSRVGIPRSLFYYYYYPLWKSFFSDLGVEILTSAPSNRHTVERGIELAVDETCFPIKVYLGHVAELCREELDYLFIPRLVSVEARSYICPKFMGLPDIVRALIKETPPLIDITVDLSRDEKCFKKDIIRVGRLFTRQASRIQLAYQHGCEELRLCRSLASQGFTMEEAIKIWEGGAMEAEPETDLNIGVLGHGYSLYDERISMNLVKRLRAMNCKVLLPEHLGSEVVEAEAATVPKRVFWTLGRKMLGSALHLSQREDVDGIIYLACFGCGPDSLIGEIIERKVRDCKPFILLTVDEHSGEAGIITRLEAFCDMLRRRRNCGSESKLSPYGVSLHSFENTV | not soluble
15 | TVEDSESDMDDAKLDALMGNEGEEEEDDLAEIDTSNIITSGRRTRGKVIDYKKTAEELDKKE | soluble
16 | MSLRDEQEIYNLVLNIANQDKRIEAVLLNGSRANPNVPKDDFQDYDIVFVTNFIEDIISDTNYHKKFGDILIMQKPNEFRNKTEYNCFAYLMQFQDLTRIDLRLIKPEFLEDYLDDAFSKVLLDKKNKYLDYNFERSSLYETKQLSEDEINKILNEIYWVSTYVVKGIARNDIIYSEFMISNPIKNAFIKLLKQKILIEKELDSLSFGKLDKDILQYITDKDQLLKIFSNKSLKDIEANLRFLLDETNQMAKYISINRKLNLNQGEYQSAMKFMNIFLSNSYQNFNEGHHHHHH | soluble
17 | MSLKRTITPVHEVQTEWVHLHYAESSIFKEVYGFVGTQGTVNLEGVRYTPVGRPSKTLLVFMHPASTLQLLPMPRELARHGAHVLCAGSRYQRNDSALIMENVVVDLGAYIRHAKEVWKYEKVVLVGWSGGGSLSLLYQSQAENPTISTTPAGDPCSIKQAGLMPADAFIFQAAHTGRARMLSEWIDPSVLDENDPDRIDPGLNLYATTCRPPYSADFLAAFRAGQRARLRRRTAWVKETLETLRRKGGQEVERGFVTHRTMADPRFLDPTIEPNDRPIGRCFMGIPETVNNGPVGIARFSTLRAWLSQWSPDDSNADGVTCAKSLTVPFLAIEHSADDAVPQSHVRQVFEAASATDKSMTVLQGATHYFLGQPEMLQQAATICLDWLAERGLHDEGHHHHHH | soluble
18 | MASKKASGTLPPQQQVVHKVIMVGTGGVGKSALTLQFMYDEFVEEYEPTKADSYRKKVVLDGEECSIDILDTAGQEDYSAIRDNYYRSGEGFICVFSILDMESFEATNEFREQILRVKNSDSSVPIVLVGNKGDMRDQRVVSAELCRQRAEQWGCHYVETSAKRRENVDKVFYDLMREMKRRKGGSQAQTGIDASASSGRKKRSGIKKHCTIL | not soluble
19 | MTEQQKFKVLADQIKISNQLDAEILNSGELTRIDVSNKNRTWEFHITLPQFLAHEDYLLFINAIEQEFKDIANVTCRFTVTNGTNQDEHAIKYFGHCIDQTALSPKVKGQLKQKKLIMSGKVLKVMVSNDIERNHFDKACNGSLIKAFRNCGFDI | not soluble
20 | TVPITSAKAAELPPGNYRLVVFELENFQGRRAEFSGECSNLADRGFDRVRSIIVSAGPWVAFEQSNFRGEMFILEKGEYPRWNTWSSSYRSDRLMSFRPIKMDAQEHKISLFEGANFKGNTIEIQGDDAPSLWVYGFSDRVGSVKVSSGTWVGYQYPGYRGYQYLLEPGDFRHWNEWGAFQPQMQSLRRLRDKQWHLEGSFPVLATEPPK | soluble
21 | MGSDKIHHHHHHMKASIEQLEPYVPEKPLATLQAELGLTELVRLSANENPYGTSPKVATAVKNWDFTQSNRYPDADAQELRQAVAQQQGIDPNSIVFSVGLDEMIVMLSRTFLATNDQVLVSAPTFSEYGLHAEIEGGQLISVPTLPNDHVNFEGLMKAITPHVKMVWLCNPNNPTGTVESLAAIEAFVQQVPPETMVLIDEAYIDFTPGAAQVTAMQLPAKYPNVVVMRTFSKAYGLANFRIGYAVFNTKYAATMQTIRLPYNVNSLAQVAALAAIDDPNFVKQTVQKNATERAKWMAFFDDQGVTYDQSGANFIFFKYPSATQLADYLVHHGYLIRTGLRPGWLRLTVGTANDNQQLQQLIREFKA | not soluble
22 | MKPKSGAVRRLEKNTMNFVLSDVADAEAEKAIRDPLVAYNLARFGESDKRDLNITIRNDDNSVTGGLVGHTARGWLYVQLLFVPEAMRGQGIAPKLLAMAEEEARKRGCMGAYIDTMNPDALRTYERYGFTKIGSLGPLSSGQSITWLEKRF | soluble
23 | MLTEERHQKILQLLDQKSVVKSQELASLFNASESTIRRDLQELEDANLLERIHGGAKRILNLGFEQNMTEKSIKNTHEKQKIASLAVSCVQDGDMIYLDAGSTTLEMIPFLVGKQIHVVTNSVHHAAKLSDMEIPTIMLGGTLKLSTKAIIGATSMEQLQHFRFNKAFLGTNGAHLEFGLTTPDPEEAALKALAIHQAETAYVLLDHTKFNEVTFTKVEELESVTLLTDYCPAESLQGFQQKTILMEANKLEHHHHHH | soluble
